Data reported in IntAct's records for PubMed 27013965.

Molecular target: lrp6_human LRP6 (UniProt O75581)
Sequence of UniProt O75581 (O75581 whole entry): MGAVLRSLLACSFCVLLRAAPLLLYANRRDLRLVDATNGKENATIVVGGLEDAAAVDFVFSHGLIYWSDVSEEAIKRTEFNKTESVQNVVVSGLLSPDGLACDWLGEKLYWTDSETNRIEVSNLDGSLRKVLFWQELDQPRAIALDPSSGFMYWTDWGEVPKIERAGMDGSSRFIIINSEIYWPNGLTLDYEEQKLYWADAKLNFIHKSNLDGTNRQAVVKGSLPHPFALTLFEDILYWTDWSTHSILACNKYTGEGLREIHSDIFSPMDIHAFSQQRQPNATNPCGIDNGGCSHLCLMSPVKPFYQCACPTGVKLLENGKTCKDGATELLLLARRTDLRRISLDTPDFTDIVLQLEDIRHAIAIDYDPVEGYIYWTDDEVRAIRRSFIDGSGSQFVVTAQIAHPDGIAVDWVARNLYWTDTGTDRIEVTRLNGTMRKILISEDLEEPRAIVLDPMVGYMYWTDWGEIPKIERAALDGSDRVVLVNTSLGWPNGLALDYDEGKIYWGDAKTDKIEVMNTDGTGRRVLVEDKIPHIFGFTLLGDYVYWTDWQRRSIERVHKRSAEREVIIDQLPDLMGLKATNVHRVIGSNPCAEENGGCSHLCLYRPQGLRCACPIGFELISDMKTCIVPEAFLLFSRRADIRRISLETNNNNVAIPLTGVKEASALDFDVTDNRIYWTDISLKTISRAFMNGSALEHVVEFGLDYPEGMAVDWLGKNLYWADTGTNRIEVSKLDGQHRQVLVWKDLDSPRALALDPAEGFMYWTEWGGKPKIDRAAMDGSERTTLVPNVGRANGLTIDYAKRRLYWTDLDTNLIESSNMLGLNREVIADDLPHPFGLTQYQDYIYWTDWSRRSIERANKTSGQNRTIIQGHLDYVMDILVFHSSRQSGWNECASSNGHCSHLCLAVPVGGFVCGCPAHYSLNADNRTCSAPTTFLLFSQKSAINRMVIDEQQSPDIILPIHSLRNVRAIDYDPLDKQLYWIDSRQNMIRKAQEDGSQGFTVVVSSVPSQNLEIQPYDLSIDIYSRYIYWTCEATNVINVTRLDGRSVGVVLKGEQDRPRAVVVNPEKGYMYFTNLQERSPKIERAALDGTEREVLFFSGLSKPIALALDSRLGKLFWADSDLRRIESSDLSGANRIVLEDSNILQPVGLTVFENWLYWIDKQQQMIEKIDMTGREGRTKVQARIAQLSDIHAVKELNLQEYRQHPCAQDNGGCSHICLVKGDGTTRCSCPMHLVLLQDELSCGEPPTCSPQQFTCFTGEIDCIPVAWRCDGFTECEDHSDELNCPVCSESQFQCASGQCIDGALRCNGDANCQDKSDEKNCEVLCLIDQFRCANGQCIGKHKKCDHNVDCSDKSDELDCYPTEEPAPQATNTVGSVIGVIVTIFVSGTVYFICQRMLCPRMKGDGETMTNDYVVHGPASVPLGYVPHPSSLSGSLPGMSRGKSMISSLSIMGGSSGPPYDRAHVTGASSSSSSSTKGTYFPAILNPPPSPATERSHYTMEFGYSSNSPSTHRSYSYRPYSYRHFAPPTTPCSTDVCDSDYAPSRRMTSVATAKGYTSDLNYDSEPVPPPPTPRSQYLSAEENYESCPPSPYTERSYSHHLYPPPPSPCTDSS

effect of a mutation on the interaction | Substance
decreasing interaction strength | Leucine-rich repeat serine/threonine-protein kinase 2 (Homo sapiens), Q5S007 R1441G
decreasing interaction strength | Leucine-rich repeat serine/threonine-protein kinase 2 (Homo sapiens), Q5S007 R1398H
